Measurements published in patent publication US20030180744, “High affinity oligonucleotide ligands to growth factors” (GILEAD SCIENCES, INC., published 2003).

Experiments:
TGFβ1 [1] = target: T1, TGFβ1 (Homo sapiens, UniProt P01137 P01137:279-390); experiment: cell_activity; also 108 and 69 nM; stimulates at low concentration; conditions: tags: Genentech or R&D Systems; chain copies: 2;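 also: inhibition of TGFβ1-induced luciferase reporter expression in mink lung epithelial cells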
Protocol: (§1) Mink lung epithelial cells (MLEC) carrying the Pail/luc construct were maintained in DME containing 10% fetal bovine serum and 400 μg/ml G418. MLEC-Pail/luc cells were plated at 3.2×10⁴ cells per well in a 96 well Falcon plate, in 100 μl of DME+10% fetal bovine serum overnight. Media was made from autoclaved water. The cells were washed three times ([…]) in serum free DME plus Solution A (1:1). Solution A is 30 mM Hepes pH 7.6, 10 mM glucose, 3.0 mM KCl, 131 mM NaCl, 1.0 mM disodium phosphate. Samples (100 μl) were added in DME containing 20 mM Hepes pH 7.5, and 0.1% BSA (Fluka, radioimmunoassay grade). All samples were in triplicate. After six hours at 37° C. in a 5% CO₂ incubator the media was removed and cells were washed three times (100 μl each) in cold PBS. Lysis buffer (75 μl) (Analytical Luminescence Laboratory) was added and the plates incubated on ice for 20 min. The plates were sealed and frozen at −80° C. until assayed. Samples (25 μl) were assayed for luciferase activity with the Enhanced Luciferase Assay Kit from Analytical Luminescence Laboratory (San Diego, Calif., USA) according to the manufacturer's instructions using the Berthold Microlumat LB96P luminometer.
(§2) Ligands tested for inhibition of TGFβ1 activity were tested at a minimum of five concentrations. […]

TGFβ1 [2] = target: T1, TGFβ1; experiment: filter; second determination 0.2 nM; cell IC50 69-109 nM; conditions: tags: Genentech; biotinylated version used in bead assay; chain copies: 2
TGFβ1 [3] = target: T1, TGFβ1; experiment: cell_activity; second value 157 nM; conditions: tags: Genentech or R&D Systems; chain copies: 2;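 also: inhibition of TGFβ1-induced luciferase reporter expression in mink lung epithelial cells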
Protocol: as §1, §2

TGFβ1 [4] = target: T1, TGFβ1; experiment: filter; 37 C; cell IC50 20 and 157 nM; conditions: tags: Genentech; biotinylated version used in bead assay; chain copies: 2
PDGF-BB = PDGF-BB (Homo sapiens, UniProt P01127 P01127:82-190); experiment: competition; PDGF alpha-receptor PAE cells, 4 C; mitogenic half-maximal 2.5 nM; conditions: tags: R&D Systems, E. coli; chain copies: B chain dimer; three-way helix junction
Sequence of PDGF-BB (P01127 82-190, one chain of several): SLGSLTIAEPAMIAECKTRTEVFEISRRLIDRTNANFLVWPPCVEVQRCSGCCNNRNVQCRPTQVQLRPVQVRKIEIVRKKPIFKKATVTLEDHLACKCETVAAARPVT

TGFβ1 [5] = target: T1, TGFβ1; experiment: cell_activity; PAI-luciferase MLEC, n=4; conditions: tags: Genentech or R&D Systems; chain copies: 2;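 also: inhibition of TGFβ1-induced luciferase reporter expression in mink lung epithelial cells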
Protocol: as §1, §2

TGFβ1 [6] = target: T1, TGFβ1; experiment: filter; boundary experiment; conditions: tags: Genentech or R&D Systems; chain copies: 2
TGFβ1 [7] = target: T1, TGFβ1; experiment: cell_activity; second value 112 nM; conditions: tags: Genentech or R&D Systems; chain copies: 2;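 also: inhibition of TGFβ1-induced luciferase reporter expression in mink lung epithelial cells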
Protocol: as §1, §2

TGFβ1 [8] = target: T1, TGFβ1; experiment: cell_activity; second value 201 nM; conditions: tags: Genentech or R&D Systems; chain copies: 2
Protocol: as §1, §2

T1 sequence (P01137 279-390, one chain of several): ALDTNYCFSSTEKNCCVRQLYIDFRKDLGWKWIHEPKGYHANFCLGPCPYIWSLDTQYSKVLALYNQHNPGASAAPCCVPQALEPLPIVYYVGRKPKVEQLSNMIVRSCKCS

B1: lib4-12 (ssRNA)
RNA: GGGGGAGAACGCGGAUCCUGAGAAGGACGUCGGGGUCAACGGGGUGAGGUGCAGCAGAAAGGGCCGGCACCACAUGACGUAAAAGCUUCGCUCUAGAUCUCCCUUUAGUGAGGGUUA
modifications: 2'-NH2 pyrimidines
TGFβ1 [1]
  IC50: 109 nM
TGFβ1 [2]
  Kd: 0.4 nM

B2: lib4-32 (ssRNA)
RNA: GGGGGAGAACGCGGAUCCGGCAACCCCAGGCGCAUAGCUUCCGAGUAGACAGGCGGGAGGGGUGGAUGUGGCGUCACGAGGAAGCUUCGCUCUAGAUCUCCCUUUAGUGAGGGUUA
modifications: 2'-NH2 pyrimidines
TGFβ1 [3]
  IC50: 20 nM
TGFβ1 [4]
  Kd: 0.8 nM

## CACAGGCTACGGCACGTAGAGCATCACCATGATCCTGTGT (ssDNA, 3'-3' idT) [36t]
PDGF-BB
  IC50: ~1 nM

B3: lib3-13 (ssRNA)
RNA: GGGGGAGAACGCGGAUCCGAGCAAUCCCAGGCGCAUAGCUUCCGAGUAGACAGGAGGGAGGGGUGGAUGUGGCGUCUACUCGGUGUCGUGAAGCUUCGCUCUAGAUCUCCCUUUAGUGAGGGUUA
modifications: 2'-NH2 pyrimidines
TGFβ1 [5]
  IC50: 25 nM

## CUUCCGAGUAGACAGGAGGGAGGGGUGGAUGUGGCGUCUACUC (ssRNA) [lib8-9 boundaries]
TGFβ1 [6]
  binding result: binds

B4: lib2-6-1 (ssRNA)
RNA: GGGGGAGAACGCGGAUCCUGUCUCCACCGCCGAUACUGGGGUUCCUGGGGCCCCUCCAUGCAGGAGGGGGGUGGUUCGGAGAAAGCUUCGCUCUAGAUCUCCCUUUAGUGAGGGUUA
modifications: 2'-NH2-U, 2'-F-C
TGFβ1 [7]
  IC50: 103 nM

B5: lib2-6-1-81 (ssRNA)
RNA: GGGGGAGAACGCGGAUCCUGUCUCCACCGCCGAUACUGGGGUUCCUGGGGCCCCUCCAUGCAGGAGGGGGGUGGUUCGGAG
modifications: 2'-NH2-U, 2'-F-C
TGFβ1 [8]
  IC50: 298 nM
